Measurements as given in patent publication US20230129844A1 (Amgen, published 2023).

Biological target: human MUC17 (huMUC17), membrane form (human, UniProt Q685J3 26-4493)
Experiment: immunohistochemistry on tissue sections

- binding result: binds
B1: anti-huMUC17 4C11 IHC antibody (antibody, mouse IgG2a, kappa, V domains shown)
VH: EVQLQQSGPELVKPGDSVKISCKASGYSFTGNFLNWVMQSHGKSLEWIGRITPYSGETFYNQKFKDKATLTVDISSSIAHMELRSLTSEDSAVYYCARGVTTEVSHYYAMDYWGQGTAVTVSS
VL: DIQMNQSPSSLSASLGDTITITCHASQNINLWLHWYQQKPGNIPKLLIFKASNLHTGVPLRFSGSGSGTGFTLTISSLQPEDIATYFCQQGQSYPLTFGGGTKLEIKR
notes: Mouse hybridoma-derived monoclonal antibody; also called 4C11 antibody; the antibody of the invention
